Reference: patent US20100099601A1

Target: Insulin-like Growth Factor Receptor (IGFR; Type I IGF receptor) (UniProt P08069)
Assay: displacement of 125I-IGF-1 from IGFR

Lantus (insulin analogue with two additional Arg residues at the carboxy-terminal end of the B-chain) (ligand)
Kd: 3.14 nM
Relative Affinity (to IGF-1): 0.015 fold
fold affinity relative to human insulin: 2 to 3 fold
